This is an account of results in US20220324997A1.

This test concerns the target CD55 on healthy donor erythrocytes (human) (UniProt P08174). Kind of test: flow cytometry on healthy donor erythrocytes, mAb at 10 µg/ml, positive control.
UniProt P08174, sequence (P08174 35-353): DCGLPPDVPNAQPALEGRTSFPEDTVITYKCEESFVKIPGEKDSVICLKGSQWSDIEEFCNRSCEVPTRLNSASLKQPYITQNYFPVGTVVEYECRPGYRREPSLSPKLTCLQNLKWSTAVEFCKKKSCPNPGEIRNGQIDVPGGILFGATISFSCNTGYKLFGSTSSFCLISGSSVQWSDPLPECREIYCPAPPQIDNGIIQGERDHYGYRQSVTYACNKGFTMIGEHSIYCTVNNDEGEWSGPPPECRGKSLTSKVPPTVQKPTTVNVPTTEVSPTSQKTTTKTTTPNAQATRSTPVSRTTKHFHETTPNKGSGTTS

In turn, 791T/36 (anti-CD55 mAb) (antibody) gave a Gm (geometric mean fluorescence) of 202.
